{
  "source": "patent US20100015650",
  "proteins": {"B1": {"name": "TXK (protein)", "chain": "MILSSYNTIQSVFCCCCCCSVQKRQMRTQISLSTDEELPEKYTQRRRPWLSQLSNKKQSNTGRVQPSKRKPLPPLPPSEVAEEKIQVKALYDFLPREPCNLALRRAEEYLILEKYNPHWWKARDRLGNEGLIPSNYVTENKITNLEIYEWYHRNITRNQAEHLLRQESKEGAFIVRDSRHLGSYTISVFMGARRSTEAAIKHYQIKKNDSGQWYVAERHAFQSIPELIWYHQHNAAGLMTRLRYPVGLMGSCLPATAGFSYEKWEIDPSELAFIKEIGSGQFGVVHLGEWRSHIQVAIKAINEGSMSEEDFIEEAKVMMKLSHSKLVQLYGVCIQRKPLYIVTEFMENGCLLNYLRENKGKLRKEMLLSVCQDICEGMEYLERNGYIHRDLAARNCLVSSTCIVKISDFGMTRYVLDDEYVSSFGAKFPIKWSPPEVFLFNKYSSKSDVWSFGVLMWEVFTEGKMPFENKSNLQVVEAISEGFRLYRPHLAPMSIYEVMYSCWHEKPEGRPTFAELLRAVTEIAETW"}, "B2": {"name": "SRM (protein)", "chain": "MEPFLRRRLAFLSFFWDKIWPAGGEPDHGTPGSLDPNTDPVPTLPAEPCSPFPQLFLALYDFTARCGGELSVRRGDRLCALEEGGGYIFARRLSGQPSAGLVPITHVAKASPETLSDQPWYFSGVSRTQAQQLLLSPPNEPGAFLIRPSESSLGGYSLSVRAQAKVCHYRVSMAADGSLYLQKGRLFPGLEELLTYYKANWKLIQNPLLQPCMPQKAPRQDVWERPHSEFALGRKLGEGYFGEVWEGLWLGSLPVAIKVIKSANMKLTDLAKEIQTLKGLRHERLIRLHAVCSGGEPVYIVTELMRKGNLQAFLGTPEGRALRLPPLLGFACQVAEGMSYLEEQRVVHRDLAARNVLVDDGLACKVADFGLARLLKDDIYSPSSSSKIPVKWTAPEAANYRVFSQKSDVWSFGVLLHEVFTYGQCPYEGMTNHETLQQIMRGYRLPRPAACPAEVYVLMLECWRSSPEERPSFATLREKLHAIHRCHP"}, "B3": {"name": "TEC (protein)", "chain": "MNFNTILEEILIKRSQQKKKTSPLNYKERLFVLTKSMLTYYEGRAEKKYRKGFIDVSKIKCVEIVKNDDGVIPCQNKYPFQVVHDANTLYIFAPSPQSRDLWVKKLKEEIKNNNNIMIKYHPKFWTDGSYQCCRQTEKLAPGCEKYNLFESSIRKALPPAPETKKRRPPPPIPLEEEDNSEEIVVAMYDFQAAEGHDLRLERGQEYLILEKNDVHWWRARDKYGNEGYIPSNYVTGKKSNNLDQYEWYCRNMNRSKAEQLLRSEDKEGGFMVRDSSQPGLYTVSLYTKFGGEGSSGFRHYHIKETTTSPKKYYLAEKHAFGSIPEIIEYHKHNAAGLVTRLRYPVSVKGKNAPTTAGFSYEKWEINPSELTFMRELGSGLFGVVRLGKWRAQYKVAIKAIREGAMCEEDFIEEAKVMMKLTHPKLVQLYGVCTQQKPIYIVTEFMERGCLLNFLRQRQGHFSRDVLLSMCQDVCEGMEYLERNSFIHRDLAARNCLVSEAGVVKVSDFGMARYVLDDQYTSSSGAKFPVKWCPPEVFNYSRFSSKSDVWSFGVLMWEVFTEGRMPFEKYTNYEVVTMVTRGHRLYQPKLASNYVYEVMLRCWQEKPEGRPSFEDLLRTIDELVECEETFGR"}, "B4": {"name": "LYNb (protein)", "chain": "MGCIKSKGKDSLSDDGVDLKTQPVPESQLLPGQRFQTKDPEEQGDIVVALYPYDGIHPDDLSFKKGEKMKVLEEHGEWWKAKSLLTKKEGFIPSNYVAKLNTLETEEWFFKDITRKDAERQLLAPGNSAGAFLIRESETLKGSFSLSVRDFDPVHGDVIKHYKIRSLDNGGYYISPRITFPCISDMIKHYQKQADGLCRRLEKACISPKPQKPWDKDAWEIPRESIKLVKRLGAGQFGEVWMGYYNNSTKVAVKTLKPGTMSVQAFLEEANLMKTLQHDKLVRLYAVVTREEPIYIITEYMAKGSLLDFLKSDEGGKVLLPKLIDFSAQIAEGMAYIERKNYIHRDLRAANVLVSESLMCKIADFGLARVIEDNEYTAREGAKFPIKWTAPEAINFGCFTIKSDVWSFGILLYEIVTYGKIPYPGRTNADVMTALSQGYRMPRVENCPDELYDIMKMCWKEKAEERPTFDYLQSVLDDFYTATEGQYQQQP"}, "B5": {"name": "ZAP70 (protein)", "chain": "MPDPAAHLPFFYGSISRAEAEEHLKLAGMADGLFLLRQCLRSLGGYVLSLVHDVRFHHFPIERQLNGTYAIAGGKAHCGPAELCEFYSRDPDGLPCNLRKPCNRPSGLEPQPGVFDCLRDAMVRDYVRQTWKLEGEALEQAIISQAPQVEKLIATTAHERMPWYHSSLTREEAERKLYSGAQTDGKFLLRPRKEQGTYALSLIYGKTVYHYLISQDKAGKYCIPEGTKFDTLWQLVEYLKLKADGLIYCLKEACPNSSASNASGAAAPTLPAHPSTLTHPQRRIDTLNSDGYTPEPARITSPDKPRPMPMDTSVYESPYSDPEELKDKKLFLKRDNLLIADIELGCGNFGSVRQGVYRMRKKQIDVAIKVLKQGTEKADTEEMMREAQIMHQLDNPYIVRLIGVCQAEALMLVMEMAGGGPLHKFLVGKREEIPVSNVAELLHQVSMGMKYLEEKNFVHRDLAARNVLLVNRHYAKISDFGLSKALGADDSYYTARSAGKWPLKWYAPECINFRKFSSRSDVWSYGVTMWEALSYGQKPYKKMKGPEVMAFIEQGKRMECPPECPPELYALMSDCWIYKWEDRPDFLTVEQRMRACYYSLASKVEGPPGSTQKAEAACA"}, "B6": {"name": "TNK1 (protein)", "chain": "MLPEAGSLWLLKLLRDIQLAQFYWPILEELNVTRPEHFDFVKPEDLDGIGMGRPAQRRLSEALKRLRSGPKSKNWVYKILGGFAPEHKEPTLPSDSPRHLPEPEGGLKCLIPEGAVCRGELLGSGCFGVVHRGLWTLPSGKSVPVAVKSLRVGPEGPMGTELGDFLREVSVMMNLEHPHVLRLHGLVLGQPLQMVMELAPLGSLHARLTAPAPTPPLLVALLCLFLRQLAGAMAYLGARGLVHRDLATRNLLLASPRTIKVADFGLVRPLGGARGRYVMGGPRPIPYAWCAPESLRHGAFSSASDVWMFGVTLWEMFSGGEEPWAGVPPYLILQRLEDRARLPRPPLCSRALYSLALRCWAPHPADRPSFSHLEGLLQEAGPSEACCVRDVTEPGALRMETGDPITVIEGSSSFHSPDSTIWKGQNGRTFKVGSFPASAVTLADAGGLPATRPVHRGTPARGDQHPGSIDGDRKKANLWDAPPARGQRRNMPLERMKGISRSLESVLSLGPRPTGGGSSPPEIRQARAVPQGPPGLPPRPPLSSSSPQPSQPSRERLPWPKRKPPHNHPMGMPGARKAAALSGGLLSDPELQRKIMEVELSVHGVTHQECQTALGATGGDVVSAIRNLKVDQLFHLSSRSRADCWRILEHYQWDLSAASRYVLARP"}, "B7": {"name": "TYK2 (protein)", "chain": "PHNLADVLTVNPDSPASDPTVFHKRYLKKIRDLGEGHFGKVSLYCYDPTNDGTGEMVAVKALKADCGPQHRSGWKQEIDILRTLYHEHIIKYKGCCEDQGEKSLQLVMEYVPLGSLRDYLPRHSIGLAQLLLFAQQICEGMAYLHAQHYIHRDLAARNVLLDNDRLVKIGDFGLAKAVPEGHEYYRVREDGDSPVFWYAPECLKEYKFYYASDVWSFGVTLYELLTHCDSSQSPPTKFLELIGIAQGQMTVLRLTELLERGERLPRPDKCPCEVYHLMKNCWETEASFRPTFENLIPILKTVHEKYQGQAPSVFSVC"}},
  "biological_target": "T1, BRB1 tyrosine kinase substrate peptide",
  "T1 chain": "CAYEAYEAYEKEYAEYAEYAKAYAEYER",
  "data": [
    {"protein": "B1", "values": [
      {"measurement": "Signal to Noise Ratio with BRB1 Peptide (TR-FRET kinase assay; kinase 3 nM)", "value": 5.9}
    ]},
    {"protein": "B2", "values": [
      {"measurement": "Signal to Noise ratio with BRB1 Peptide (TR-FRET kinase assay; kinase 0.5 nM)", "value": 32.5}
    ]},
    {"protein": "B3", "values": [
      {"measurement": "Signal to Noise ratio with BRB1 Peptide (TR-FRET kinase assay; kinase 0.5 nM)", "value": 18.6}
    ]},
    {"protein": "B4", "values": [
      {"measurement": "Signal to Noise Ratio with BRB1 Peptide (TR-FRET kinase assay; kinase 1 nM)", "value": 33.1}
    ]},
    {"protein": "B5", "values": [
      {"measurement": "Signal to Noise ratio with BRB1 Peptide (TR-FRET kinase assay; kinase 4 nM)", "value": 7.6}
    ]},
    {"protein": "B6", "values": [
      {"measurement": "Signal to Noise Ratio with BRB1 Peptide (TR-FRET kinase assay; kinase 1 nM)", "value": 6.8}
    ]},
    {"protein": "B7", "values": [
      {"measurement": "Signal to Noise ratio with BRB1 Peptide (TR-FRET kinase assay; kinase 4 nM)", "value": 7.3}
    ]}
  ]
}
